Source: the supplement of paper PMC9112550, “Optimization of the antimicrobial peptide Bac7 by deep mutational scanning” (BMC Biology, 2022)

tested on: Escherichia coli TOP10; assay: shrunken log2 fold change of peptide-encoding DNA abundance (4.5 h post-induction vs induction); higher = less antimicrobial activity (less host growth inhibition); details: time post-induction: 4.5 h; library: site-saturation at positions 5, 18, 19, 20
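Further: peptides expressed intracellularly from a pBAD plasmid library in pooled LB shake-flask culture, induced with 0.3% L-arabinose, DNA abundance read by NGS, three biological replicates, DESeq2 with apeglm shrinkage.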

Row | Sequence | shrunken log2 fold change
1 | RRIRPRPPRLPRPRPRPLPWPRP | 0.592
2 | RRIRPRPPRLPRPRPRPLQGPRP | 0.13
3 | RRIRPRPPRLPRPRPRPLVPPRP | 0.125
4 | RRIRPRPPRLPRPRPRPLWRPRP | 0.446
5 | RRIRPRPPRLPRPRPRPMAMPRP | -0.146
6 | RRIRPRPPRLPRPRPRPMAQPRP | 0.177
7 | RRIRPRPPRLPRPRPRPMCAPRP | 0.159
8 | RRIRPRPPRLPRPRPRPMDCPRP | -0.00833
9 | RRIRPRPPRLPRPRPRPMEAPRP | 0.177
10 | RRIRPRPPRLPRPRPRPMEFPRP | 0.00564
11 | RRIRPRPPRLPRPRPRPMFMPRP | 0.0765
12 | RRIRPRPPRLPRPRPRPMGHPRP | -0.145
13 | RRIRPRPPRLPRPRPRPMIYPRP | -0.113
14 | RRIRPRPPRLPRPRPRPMKCPRP | -0.00631
15 | RRIRPRPPRLPRPRPRPMKHPRP | 0.0348
16 | RRIRPRPPRLPRPRPRPMLLPRP | 0.0229
17 | RRIRPRPPRLPRPRPRPMMQPRP | -0.369
18 | RRIRPRPPRLPRPRPRPMNYPRP | -0.736
19 | RRIRPRPPRLPRPRPRPMPLPRP | -0.0538
20 | RRIRPRPPRLPRPRPRPMPPPRP | 0.194
21 | RRIRPRPPRLPRPRPRPMQPPRP | 0.234
22 | RRIRPRPPRLPRPRPRPMQSPRP | 0.524

Row | Sequence | shrunken log2 fold change
23 | RRIRPRPPRLPRPRPRPMVFPRP | -0.166
24 | RRIRPRPPRLPRPRPRPMVHPRP | 0.137
25 | RRIRPRPPRLPRPRPRPMWMPRP | 0.000224
26 | RRIRPRPPRLPRPRPRPMYIPRP | -0.0479
27 | RRIRPRPPRLPRPRPRPNAIPRP | -0.0755
28 | RRIRPRPPRLPRPRPRPNASPRP | 0.0199
29 | RRIRPRPPRLPRPRPRPNDLPRP | -0.111
30 | RRIRPRPPRLPRPRPRPNDNPRP | -0.533
31 | RRIRPRPPRLPRPRPRPNDPPRP | -0.0507
32 | RRIRPRPPRLPRPRPRPNDSPRP | -0.442
33 | RRIRPRPPRLPRPRPRPNFEPRP | 0.275
34 | RRIRPRPPRLPRPRPRPNFVPRP | -0.0668
35 | RRIRPRPPRLPRPRPRPNGGPRP | -0.305
36 | RRIRPRPPRLPRPRPRPNGSPRP | 0.0884
37 | RRIRPRPPRLPRPRPRPNHHPRP | -0.509
38 | RRIRPRPPRLPRPRPRPNIDPRP | -0.468
39 | RRIRPRPPRLPRPRPRPNIIPRP | -0.407
40 | RRIRPRPPRLPRPRPRPNIQPRP | -0.404
41 | RRIRPRPPRLPRPRPRPNKGPRP | -0.266
42 | RRIRPRPPRLPRPRPRPNKKPRP | -0.238
43 | RRIRPRPPRLPRPRPRPNKLPRP | 0.448
44 | RRIRPRPPRLPRPRPRPNKWPRP | -0.232

Row | Sequence | shrunken log2 fold change
45 | RRIRPRPPRLPRPRPRPNLEPRP | -0.0337
46 | RRIRPRPPRLPRPRPRPNLRPRP | 0.197
47 | RRIRPRPPRLPRPRPRPNLWPRP | -0.0151
48 | RRIRPRPPRLPRPRPRPNMFPRP | -0.254
49 | RRIRPRPPRLPRPRPRPNPAPRP | 0.234
50 | RRIRPRPPRLPRPRPRPNQIPRP | 0.0623
51 | RRIRPRPPRLPRPRPRPNRHPRP | -0.0624
52 | RRIRPRPPRLPRPRPRPNRIPRP | -0.132
53 | RRIRPRPPRLPRPRPRPNRWPRP | 0.106
54 | RRIRPRPPRLPRPRPRPNSRPRP | -0.1
55 | RRIRPRPPRLPRPRPRPNTNPRP | -0.329
56 | RRIRPRPPRLPRPRPRPNTPPRP | -0.153
57 | RRIRPRPPRLPRPRPRPNTYPRP | -0.67
58 | RRIRPRPPRLPRPRPRPNWAPRP | 0.176
59 | RRIRPRPPRLPRPRPRPNWFPRP | 0.283
60 | RRIRPRPPRLPRPRPRPNWRPRP | 0.392
61 | RRIRPRPPRLPRPRPRPNYFPRP | -0.435
62 | RRIRPRPPRLPRPRPRPNYHPRP | -0.607
63 | RRIRPRPPRLPRPRPRPPADPRP | 0.593
64 | RRIRPRPPRLPRPRPRPPAHPRP | 0.466
65 | RRIRPRPPRLPRPRPRPPAIPRP | 0.325
66 | RRIRPRPPRLPRPRPRPPAMPRP | 0.447

Row | Sequence | shrunken log2 fold change
67 | RRIRPRPPRLPRPRPRPPCCPRP | -0.0155
68 | RRIRPRPPRLPRPRPRPPDHPRP | 0.182
69 | RRIRPRPPRLPRPRPRPPEEPRP | 0.885
70 | RRIRPRPPRLPRPRPRPPFCPRP | 0.317
71 | RRIRPRPPRLPRPRPRPPFEPRP | 0.596
72 | RRIRPRPPRLPRPRPRPPFFPRP | 0.415
73 | RRIRPRPPRLPRPRPRPPGCPRP | 0.264
74 | RRIRPRPPRLPRPRPRPPICPRP | -0.474
75 | RRIRPRPPRLPRPRPRPPIGPRP | 0.287
76 | RRIRPRPPRLPRPRPRPPLLPRP | 0.081
77 | RRIRPRPPRLPRPRPRPPMDPRP | 0.126
78 | RRIRPRPPRLPRPRPRPPNFPRP | 0.0501
79 | RRIRPRPPRLPRPRPRPPNHPRP | 0.0555
80 | RRIRPRPPRLPRPRPRPPNMPRP | -0.0209
81 | RRIRPRPPRLPRPRPRPPPCPRP | 0.384
82 | RRIRPRPPRLPRPRPRPPPQPRP | 0.963
83 | RRIRPRPPRLPRPRPRPPPSPRP | 1.12
84 | RRIRPRPPRLPRPRPRPPQMPRP | 0.531
85 | RRIRPRPPRLPRPRPRPPSYPRP | -0.147
86 | RRIRPRPPRLPRPRPRPPTNPRP | 0.222
87 | RRIRPRPPRLPRPRPRPPYMPRP | -0.288
88 | RRIRPRPPRLPRPRPRPQAQPRP | 0.143

Row | Sequence | shrunken log2 fold change
89 | RRIRPRPPRLPRPRPRPQCHPRP | -0.457
90 | RRIRPRPPRLPRPRPRPQDMPRP | -0.39
91 | RRIRPRPPRLPRPRPRPQDVPRP | -0.373
92 | RRIRPRPPRLPRPRPRPQEGPRP | -0.259
93 | RRIRPRPPRLPRPRPRPQFIPRP | -0.653
94 | RRIRPRPPRLPRPRPRPQFMPRP | -0.259
95 | RRIRPRPPRLPRPRPRPQGAPRP | 0.0965
96 | RRIRPRPPRLPRPRPRPQGSPRP | 0.0552
97 | RRIRPRPPRLPRPRPRPQKWPRP | 0.17
98 | RRIRPRPPRLPRPRPRPQMGPRP | -0.0457
99 | RRIRPRPPRLPRPRPRPQMKPRP | -0.151
100 | RRIRPRPPRLPRPRPRPQMPPRP | -0.451
101 | RRIRPRPPRLPRPRPRPQMRPRP | 0.806
102 | RRIRPRPPRLPRPRPRPQNWPRP | 0.0202
103 | RRIRPRPPRLPRPRPRPQPGPRP | 0.204
104 | RRIRPRPPRLPRPRPRPQQSPRP | -0.236
105 | RRIRPRPPRLPRPRPRPQRDPRP | 0.116
106 | RRIRPRPPRLPRPRPRPQRWPRP | 0.156
107 | RRIRPRPPRLPRPRPRPQTMPRP | 0.235
108 | RRIRPRPPRLPRPRPRPQTTPRP | -0.161
109 | RRIRPRPPRLPRPRPRPQVHPRP | -0.0018
